Eight sequences from the Immune Epitope Database (IEDB) can be followed below.

The target in one assay is HLA-A*01:01. The assay is described as follows: IEDB peptide-MHC binding, purified MHC/direct/fluorescence; filed as Kd, often an IC50 or EC50 that approximates it; ≥ and ≤ were set here for values at or beyond the usual limits of such assays.
Another assay has as its target HLA-A*02:01. The description is as above.
In a further assay the target is HLA-A*03:01. Described as above.
Assay [1] addresses HLA-A*11:01. The description is as above.
Assay [2] concerns the target HLA-A*31:01. The assay is described as above.
A further assay deals with HLA-A*69:01. Described as above.
The target in another assay is HLA-B*07:02. Described as above.
For another assay, the target named is HLA-B*15:01. The description is as above.
Assay [3] addresses HLA-B*15:17. The description is as above.
For a further assay, the target named is HLA-B*18:01. The assay is described as above.
The target in a further assay is HLA-B*27:05. Described as above.
In assay [4] the target is HLA-B*39:01. The description is as above.
The target of another assay is HLA-B*40:01. Described as above.
For another assay, the target named is HLA-B*44:02. Described as above.
For the next assay, the target named is HLA-B*48:01. The description is as above.
The target of assay [5] is HLA-B*57:01. The description is as above.
In assay [6] the target is HLA-B*58:01. Described as above.
For assay [7], the target named is HLA-A*26:03. The assay is described as follows: IEDB peptide-MHC binding, purified MHC/competitive/fluorescence; filed as Kd, often an IC50 or EC50 that approximates it; ≥ and ≤ were set here for values at or beyond the usual limits of such assays. Particulars: source organism: Influenza A virus.
For another assay, the target named is HLA-B*08:02. The assay is described as follows: IEDB peptide-MHC binding, purified MHC/direct/fluorescence; filed as Kd, often an IC50 or EC50 that approximates it; ≥ and ≤ were set here for values at or beyond the usual limits of such assays.
For a further assay, the target named is HLA-B*46:01. The description is as above. Particulars: source organism: Vibrio cholerae.
A further assay deals with HLA-B*51:01. Described as above.
For assay [8], the target named is HLA-B*15:09. Briefly: IEDB peptide-MHC binding, purified MHC/competitive/fluorescence; filed as Kd, often an IC50 or EC50 that approximates it; ≥ and ≤ were set here for values at or beyond the usual limits of such assays. Particulars: source organism: Vibrio cholerae 2740-80.
For assay [9], the target named is HLA-B*39:01. Described as above. Particulars: source organism: Vibrio cholerae 2740-80.
Assay [10] deals with HLA-B*57:01. Briefly: IEDB peptide-MHC binding, purified MHC/competitive/fluorescence; ≥ and ≤ were set here for values at or beyond the usual limits of such assays. Particulars: source organism: Homo sapiens.
The target in assay [11] is HLA-B*58:01. The assay is described as follows: IEDB peptide-MHC binding, cellular MHC/competitive/fluorescence; ≥ and ≤ were set here for values at or beyond the usual limits of such assays. Particulars: source organism: Human herpesvirus 4 strain B95-8.
Another assay deals with HLA-B*53:01. Briefly: IEDB peptide-MHC binding, purified MHC/competitive/fluorescence; ≥ and ≤ were set here for values at or beyond the usual limits of such assays. Particulars: source organism: Human immunodeficiency virus 1.
The next assay deals with HLA-B*73:01. The assay is described as follows: IEDB peptide-MHC binding, purified MHC/competitive/fluorescence; filed as Kd, often an IC50 or EC50 that approximates it; ≥ and ≤ were set here for values at or beyond the usual limits of such assays. Particulars: source organism: Brucella abortus S19.
A further assay has as its target HLA-A*26:01. The assay is described as follows: IEDB peptide-MHC binding, purified MHC/direct/fluorescence; filed as Kd, often an IC50 or EC50 that approximates it; ≥ and ≤ were set here for values at or beyond the usual limits of such assays. Particulars: source organism: Bacillus cereus H3081.97.
Assay [12] addresses HLA-A*26:02. Described as above. Particulars: source organism: Bacillus cereus H3081.97.
The target in assay [13] is HLA-B*15:09. The description is as above. Particulars: source organism: Bacillus cereus H3081.97.
The next assay concerns the target HLA-B*38:01. The description is as above. Particulars: source organism: Bacillus cereus H3081.97.
Assay [14] deals with HLA-A*11:01. Briefly: IEDB peptide-MHC binding, purified MHC/competitive/fluorescence; filed as Kd, often an IC50 or EC50 that approximates it; ≥ and ≤ were set here for values at or beyond the usual limits of such assays. Particulars: source organism: Bacillus thuringiensis serovar sotto str. T04001.
In another assay the target is HLA-A*30:01. The description is as above. Particulars: source organism: Bacillus thuringiensis serovar sotto str. T04001.
For assay [15], the target named is HLA-A*31:01. The description is as above. Particulars: source organism: Bacillus thuringiensis serovar sotto str. T04001.
The target of the next assay is HLA-B*08:01. The assay is described as above. Particulars: source organism: Bacillus thuringiensis serovar sotto str. T04001.
In assay [16] the target is HLA-B*15:17. Described as above.
Assay [17] addresses HLA-A*26:03. Briefly: IEDB peptide-MHC binding, purified MHC/direct/fluorescence; filed as Kd, often an IC50 or EC50 that approximates it; ≥ and ≤ were set here for values at or beyond the usual limits of such assays. Particulars: source organism: Variola virus.
Assay [18] addresses HLA-A*26:02. Briefly: IEDB peptide-MHC binding, purified MHC/competitive/fluorescence; filed as Kd, often an IC50 or EC50 that approximates it; ≥ and ≤ were set here for values at or beyond the usual limits of such assays. Particulars: source organism: Vaccinia virus Tian Tan.
In the next assay the target is HLA-A*68:02. The assay is described as above. Particulars: source organism: Vaccinia virus Tian Tan.
Where [19] appears, read: source organism: Influenza A virus (A/chicken/Thailand/LV1NF/2004(H5N1)).
Where [20] appears, read: source organism: Vibrio cholerae.
[21] abbreviates: source organism: Bacillus anthracis.
Where [22] appears, read: source organism: Bacillus cereus H3081.97.
[23] abbreviates: source organism: Camelpox virus CMS.

One may read the Kd as the free concentration of one partner at which half of the binding sites on the other are occupied at equilibrium, for simple one-to-one binding. Lower therefore signals a tighter complex. Consider EMIWDPNGW, for which the Kd in the assay with HLA-A*01:01 (setting [19]), with HLA-A*02:01 (setting [19]), with HLA-A*03:01 (setting [19]), in the assay with HLA-A*11:01 [1] (setting [19]), with HLA-A*31:01 [2] (setting [19]) and with HLA-A*69:01 (setting [19]) was not below 20 µM each time. The Kd with HLA-B*07:02 (setting [19]) is not below 20 µM; with HLA-B*15:01 (setting [19]), not below 20 µM; in the assay with HLA-B*15:17 [3] (setting [19]), not below 20 µM; with HLA-B*18:01 (setting [19]), 2 µM; with HLA-B*27:05 (setting [19]), not below 20 µM; with HLA-B*39:01 [4] (source organism: Influenza A virus (A/chicken/Hebei/706/2005(H5N1))), not below 20 µM. The Kd with HLA-B*40:01 (setting [19]) is not below 20 µM; with HLA-B*44:02 (setting [19]), not below 20 µM; with HLA-B*48:01 (setting [19]), not below 20 µM; with HLA-B*57:01 [5] (setting [19]), not below 20 µM; in the assay with HLA-B*58:01 [6] (source organism: Influenza A virus (A/Puerto Rico/8/34/Mount Sinai(H1N1))), 0.185 µM; in the assay with HLA-A*26:03 [7] it was not below 20 µM.

FPLTQRDVL: the Kd is not below 20 µM with HLA-A*01:01 (setting [20]); not below 20 µM in the assay with HLA-A*02:01 (setting [20]); not below 20 µM in the assay with HLA-A*03:01 (setting [20]); not below 20 µM in the assay with HLA-A*11:01 [1] (setting [20]); not below 20 µM with HLA-A*31:01 [2] (setting [20]); 0.719 µM in the assay with HLA-A*69:01 (setting [20]). Also, the Kd with HLA-B*07:02 (setting [20]) is 0.046 µM; with HLA-B*08:02 (source organism: Vibrio cholerae V52) it was not below 20 µM; with HLA-B*15:01 (setting [20]) it was not below 20 µM; in the assay with HLA-B*15:17 [3] (setting [20]) it was not below 20 µM; with HLA-B*18:01 (setting [20]), 1.9 µM; with HLA-B*27:05 (setting [20]) it was not below 20 µM. The Kd was not below 20 µM with HLA-B*40:01 (setting [20]); not below 20 µM with HLA-B*46:01; not below 20 µM in the assay with HLA-B*48:01 (setting [20]); 2.82 µM in the assay with HLA-B*51:01 (setting [20]); not below 20 µM in the assay with HLA-B*57:01 [5] (setting [20]); not below 20 µM in the assay with HLA-B*58:01 [6] (setting [20]). The Kd came out at 0.358 µM with HLA-B*15:09 [8] and 0.0144 µM in the assay with HLA-B*39:01 [9].

The term IC50 denotes the midpoint of a concentration-inhibition curve. On to STIRLLTSL, for which the IC50 with HLA-B*57:01 [10] was 0.853 µM. In other words, the sub-micromolar range.

With ATLNICNFW, the IC50 with HLA-B*58:01 [11] was 5 µM.

Regarding WPVKVIHT, the concentration for half-maximal inhibition (IC50) with HLA-B*53:01 is not below 20 µM.

Consider NEAWGKKPV, for which the Kd in the assay with HLA-B*73:01 was not below 20 µM.

On to TVIRFWHAM, for which the dissociation constant (Kd) is not below 20 µM in the assay with HLA-A*01:01 (setting [21]); not below 20 µM in the assay with HLA-A*02:01 (setting [21]); not below 20 µM with HLA-A*03:01 (setting [21]); 0.012 µM with HLA-A*26:01; not above 0.001 µM in the assay with HLA-A*26:02 [12]; not above 0.001 µM in the assay with HLA-A*69:01 (setting [21]). In addition, the Kd is 1.81 µM with HLA-B*07:02 (setting [21]); not below 20 µM with HLA-B*08:02 (setting [22]); 0.0207 µM in the assay with HLA-B*15:01 (setting [21]); 6.04 µM with HLA-B*15:09 [13]; not below 20 µM with HLA-B*27:05 (setting [21]); not below 20 µM in the assay with HLA-B*38:01. Also, the equilibrium dissociation constant (Kd) in the assay with HLA-B*39:01 [4] (setting [22]) was 0.05 µM; in the assay with HLA-B*40:01 (setting [21]), not below 20 µM; with HLA-B*48:01 (setting [21]), not below 20 µM; with HLA-B*51:01 (setting [22]), not below 20 µM; with HLA-B*57:01 [5] (setting [21]), 0.593 µM; with HLA-B*58:01 [6] (setting [21]), 0.074 µM. Further, the Kd with HLA-A*11:01 [14] is 0.0979 µM; with HLA-A*30:01 it was 0.168 µM; in the assay with HLA-A*31:01 [15], 0.0344 µM; in the assay with HLA-B*08:01, not below 20 µM; with HLA-B*15:17 [16] (source organism: Bacillus thuringiensis serovar sotto str. T04001), 0.293 µM.

With REVFYFGKF, the Kd in the assay with HLA-A*01:01 (setting [23]), with HLA-A*02:01 (setting [23]), in the assay with HLA-A*11:01 [1] (setting [23]), in the assay with HLA-A*26:03 [17], with HLA-A*31:01 [2] (setting [23]) and with HLA-A*69:01 (setting [23]) was not below 20 µM each time. The dissociation constant Kd in the assay with HLA-B*07:02 (setting [23]) was not below 20 µM; in the assay with HLA-B*18:01 (setting [23]) it was 0.813 µM; with HLA-B*27:05 (setting [23]) it was not below 20 µM; with HLA-B*40:01 (setting [23]), 0.0617 µM; with HLA-B*44:02 (setting [23]), not below 20 µM; in the assay with HLA-B*48:01 (setting [23]) it was not below 20 µM. Also, the Kd with HLA-B*57:01 [5] (setting [23]) is not below 20 µM; with HLA-B*58:01 [6] (setting [23]), not below 20 µM; with HLA-A*26:02 [18], 2.35 µM; with HLA-A*68:02 it was 3.04 µM; in the assay with HLA-B*15:17 [16] (source organism: Vaccinia virus Tian Tan), not below 20 µM.
